This passage reports Kd results from publication PMC2908990.

The assay addresses CH1 domain of the murine IgG1 heavy chain, oxidized (internal disulfide bridge formed) (murine) [IgG part: P01868]. Nature of the assay: other fluorescence titration.

For orientation: Kd means the concentration at which binding is half-saturated. Substance “CL domain of the murine MAK33 κ light chain (from UniProt P01837 1-107) (domain or fragment)” came in with a Kd of 6.2 µM.
